{"source": "paper PMC5907806", "about": "(Nature, 2017)", "binders": {"B1": {"name": "Saccharomyces cerevisiae Rad26 (natural protein, S. cerevisiae, UniProt P40352 1-1085, looked up)", "chain": "MEDKEQQDNAKLENNESLKDLGVNVLSQSSLEEKIANDVTNFSNLQSLQQEETRLERSKTALQRYVNKKNHLTRKLNNTTRISVKQNLRDQIKNLQSDDIERVLKDIDDIQSRIKELKEQVDQGAENKGSKEGLQRPGETEKEFLIRTGKITAFGHKAGFSLDTANREYAKNDEQKDEDFEMATEQMVENLTDEDDNLSDQDYQMSGKESEDDEEEENDDKILKELEDLRFRGQPGEAKDDGDELYYQERLKKWVKQRSCGSQRSSDLPEWRRPHPNIPDAKLNSQFKIPGEIYSLLFNYQKTCVQWLYELYQQNCGGIIGDEMGLGKTIQVIAFIAALHHSGLLTGPVLIVCPATVMKQWCNEFQHWWPPLRTVILHSMGSGMASDQKFKMDENDLENLIMNSKPSDFSYEDWKNSTRTKKALESSYHLDKLIDKVVTDGHILITTYVGLRIHSDKLLKVKWQYAVLDEGHKIRNPDSEISLTCKKLKTHNRIILSGTPIQNNLTELWSLFDFIFPGKLGTLPVFQQQFVIPINIGGYANATNIQVQTGYKCAVALRDLISPYLLRRVKADVAKDLPQKKEMVLFCKLTKYQRSKYLEFLHSSDLNQIQNGKRNVLFGIDILRKICNHPDLLDRDTKRHNPDYGDPKRSGKMQVVKQLLLLWHKQGYKALLFTQSRQMLDILEEFISTKDPDLSHLNYLRMDGTTNIKGRQSLVDRFNNESFDVFLLTTRVGGLGVNLTGANRIIIFDPDWNPSTDMQARERAWRIGQKREVSIYRLMVGGSIEEKIYHRQIFKQFLTNRILTDPKQKRFFKIHELHDLFSLGGENGYSTEELNEEVQKHTENLKNSKSEESDDFEQLVNLSGVSKLESFYNGKEKKENSKTEDDRLIEGLLGGESNLETVMSHDSVVNSHAGSSSSNIITKEASRVAIEAVNALRKSRKKITKQYEIGTPTWTGRFGKAGKIRKRDPLKNKLTGSAAILGNITKSQKEASKEARQENYDDGITFARSKEINSNTKTLENIRAYLQKQNNFFSSSVSILNSIGVSLSDKEDVIKVRALLKTIAQFDKERKGWVLDEEFRNNNAS"}, "B2": {"name": "non-damaged TT scaffold (mixed)", "DNA 1": "CGAGCAGATCTCATAGCCCATTCCTACTAAGGAGAAGGAGCAGAGCG", "DNA 2": "CGCTCTGCTCCTTCTCCTTTCCTCTCGATGGCTATGAGATCTGCTCG", "RNA": "AUCGAGAGGA"}, "B3": {"name": "3+10 bubble scaffold (mixed)", "DNA 1": "B2 DNA 1 with G16T, C17T, C18T, A29T, A30G", "DNA 2": "B2 DNA 2 with T18C, T19A", "RNA": "AUCGAGAGGA"}, "B4": {"name": "10+3 bubble scaffold (mixed)", "DNA 1": "B2 DNA 1 with A29C, G31T", "DNA 2": "B2 DNA 2 with T18C, T19A", "RNA": "AUCGAGAGGA"}, "B5": {"name": "3+10+3 bubble scaffold (mixed)", "DNA 1": "B2 DNA 1 with G16T, C17T, C18T, A29C, G31T", "DNA 2": "B2 DNA 2 with T18C, T19A", "RNA": "AUCGAGAGGA"}, "B6": {"name": "CPD lesion scaffold (mixed)", "DNA 1": "B2 DNA 1", "DNA 2": "B2 DNA 2", "RNA": "AUCGAGAGGA", "modifications": "CPD at TT of TS (nt 18-19)"}, "B7": {"name": "AT-rich upstream fork scaffold (mixed)", "DNA 1": "B2 DNA 1 with G16T, C17T, C18T, A29T, A30G", "DNA 2": "B2 DNA 2 with T18C, T19A, G30A, G31A, C32A", "RNA": "AUCGAGAGGA"}}, "key": {"[1]": {"target": "Rpb2 subunit of S. cerevisiae RNA polymerase II (S. cerevisiae, UniProt P08518 1-1224)", "sequence (P08518 whole entry)": "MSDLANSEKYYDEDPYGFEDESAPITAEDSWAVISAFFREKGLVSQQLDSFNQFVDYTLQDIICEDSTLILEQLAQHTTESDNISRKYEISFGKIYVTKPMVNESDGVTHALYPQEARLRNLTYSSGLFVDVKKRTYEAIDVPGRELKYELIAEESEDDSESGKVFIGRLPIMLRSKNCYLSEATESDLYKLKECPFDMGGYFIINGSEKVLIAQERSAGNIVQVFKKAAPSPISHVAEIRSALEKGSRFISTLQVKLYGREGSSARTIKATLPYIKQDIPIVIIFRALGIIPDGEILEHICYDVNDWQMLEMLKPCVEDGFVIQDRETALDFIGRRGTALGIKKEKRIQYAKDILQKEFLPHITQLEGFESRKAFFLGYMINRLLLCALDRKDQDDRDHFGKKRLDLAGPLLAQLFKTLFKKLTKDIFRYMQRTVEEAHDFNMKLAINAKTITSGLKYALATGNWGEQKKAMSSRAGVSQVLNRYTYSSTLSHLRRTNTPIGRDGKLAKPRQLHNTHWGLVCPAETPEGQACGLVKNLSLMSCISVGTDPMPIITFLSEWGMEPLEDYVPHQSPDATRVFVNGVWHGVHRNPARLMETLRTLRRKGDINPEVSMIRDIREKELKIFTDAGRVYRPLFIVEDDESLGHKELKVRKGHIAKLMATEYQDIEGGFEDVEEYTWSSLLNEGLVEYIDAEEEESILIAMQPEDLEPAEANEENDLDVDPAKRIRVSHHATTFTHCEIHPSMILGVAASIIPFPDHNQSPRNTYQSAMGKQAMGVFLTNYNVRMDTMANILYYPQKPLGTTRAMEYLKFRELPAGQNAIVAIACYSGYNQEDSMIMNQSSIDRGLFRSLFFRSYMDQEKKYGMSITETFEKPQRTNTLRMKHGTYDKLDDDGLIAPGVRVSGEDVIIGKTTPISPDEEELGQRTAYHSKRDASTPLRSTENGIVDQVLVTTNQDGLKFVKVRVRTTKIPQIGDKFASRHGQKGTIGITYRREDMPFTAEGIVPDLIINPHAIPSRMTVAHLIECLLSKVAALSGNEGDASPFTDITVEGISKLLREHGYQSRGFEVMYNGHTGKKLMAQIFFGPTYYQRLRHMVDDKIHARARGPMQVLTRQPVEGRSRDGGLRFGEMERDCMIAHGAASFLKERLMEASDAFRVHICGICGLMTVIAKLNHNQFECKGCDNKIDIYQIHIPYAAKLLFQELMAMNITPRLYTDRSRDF", "experiment": "cryo-EM structure"}, "[2]": {"target": "T1, RNA polymerase II (12-subunit);Rad26 (Saccharomyces cerevisiae;Saccharomyces …, UniProt P04050;P08518;P16370;P20433;P20434;P20435;P34087;P20436;P27999;P22139;P38902;P40 …, |)", "experiment": "EMSA"}, "[3]": {"target": "T1, RNA polymerase II (12-subunit);Rad26", "experiment": "EMSA", "remark": "listed apart in the source"}, "[4]": {"target": "T1, RNA polymerase II (12-subunit);Rad26", "experiment": "EMSA", "remark": "listed apart in the source"}, "[5]": {"target": "T1, RNA polymerase II (12-subunit);Rad26", "experiment": "EMSA", "remark": "listed apart in the source"}, "[6]": {"target": "T1, RNA polymerase II (12-subunit);Rad26", "experiment": "EMSA", "remark": "listed apart in the source"}, "[7]": {"target": "T1, RNA polymerase II (12-subunit);Rad26", "experiment": "EMSA", "remark": "listed apart in the source"}}, "note": "Substitutions are numbered along the chain they refer to. Where two headings read alike, the source gives them in different places."}
{"binder": "B1", "values": [{"measurement": "binding result", "setting": "[1]", "result": "binds"}]}
{"binder": "B2", "values": [{"measurement": "binding result", "setting": "[2]", "result": "binds"}]}
{"binder": "B3", "values": [{"measurement": "binding result", "setting": "[3]", "result": "binds"}]}
{"binder": "B4", "values": [{"measurement": "binding result", "setting": "[4]", "result": "binds"}]}
{"binder": "B5", "values": [{"measurement": "binding result", "setting": "[5]", "result": "binds"}]}
{"binder": "B6", "values": [{"measurement": "binding result", "setting": "[6]", "result": "binds"}]}
{"binder": "B7", "values": [{"measurement": "binding result", "setting": "[7]", "result": "binds"}]}
